# Source: patent US20260234255A1 (Genmab, published 2026)
# Numbering of substitutions follows the chain as printed.
# B1: IgG1-CD30-HRS-3-FEAR (antibody, V domains shown)
# VH: QVQLQQSGAELARPGASVKMSCKASGYTFTTYTIHWVRQRPGHDLEWIGYINPSSGYSDYNQNFKGKTTLTADKSSNTAYMQLNSLTSEDSAVYYCARRADYGNYEYTWFAYWGQGTTVTVSS
# VL: DIVMTQSPKFMSTSVGDRVTVTCKASQNVGTNVAWFQQKPGQSPKVLIYSASYRYSGVPDRFTGSGSGTDFTLTISNVQSEDLAEYFCQQYHTYPLTFGGGTKLEINR
# notes: Monospecific, bivalent parental antibody
# B2: bsG1-huCD3-FEALxCD30-HeFi-I-FEAR (bispecific antibody, human IgG1, kappa, lambda)
# heavy 1: not shown
# light 1: not shown
# heavy 2: EVKLVESGGGLVQPGGSLRLSCATSGFTFSDYYMNWVRQPPGKALEWLGFIRNKANGYTTEFSASVMGRFTISRDDSQSILYLQMNTLRAEDSATYYCARDPPYGNPHYYAMDYWGQGTSVTVSSASTKGPSVFPLAPSSKSTSGGTAALGCLVKDYFPEPVTVSWNSGALTSGVHTFPAVLQSSGLYSLSSVVTVPSSSLGTQTYICNVNHKPSNTKVDKRVEPKSCDKTHTCPPCPAPEFEGGPSVFLFPPKPKDTLMISRTPEVTCVVVAVSHEDPEVKFNWYVDGVEVHNAKTKPREEQYNSTYRVVSVLTVLHQDWLNGKEYKCKVSNKALPAPIEKTISKAKGQPREPQVYTLPPSREEMTKNQVSLTCLVKGFYPSDIAVEWESNGQPENNYKTTPPVLDSDGSFFLYSRLTVDKSRWQQGNVFSCSVMHEALHNHYTQKSLSLSPG
# light 2: not shown
# notes: Bispecific IgG1 made by controlled Fab-arm exchange; also called BsIgG1-huCD3-FEALxCD30-HeFi-I-FEAR
# B3: IgG1-CD30-T215-FEAR (antibody, V domains shown)
# VH: QVTLKESGPGILQPSQTLSLTCSFSGFSLSVSGMGVSWIRQPSGKGLEWLAHIHWDDDRRSNPSLRSRLTISKDTSNNQVFLKITSVDTADTATYYCARRPDLYGNYFFFDFWGQGTTLTVSS
# VL: DIVMTQSQKFMSTSVGDRVSVTCKASQNVFTNVAWYQQKLGQSPKPLIYSASYRYSGVPDRFTGSGSGTDFTLTISDVQSEDLAEYFCQQYNSYPVTFGAGTKLELKR
# notes: as for B1
# B4: bsG1-huCD3-FEALxCD30-hAC10-FEAR (bispecific antibody, human IgG1, kappa, lambda)
# heavy 1: not shown
# light 1: not shown
# heavy 2: QVQLVQSGAEVKKPGASVKVSCKASGYTFTDYYITWVRQAPGQGLEWMGWIYPGSGNTKYNEKFKGRVTMTRDTSISTAYMELSRLRSDDTAVYYCANYGNYWFAYWGQGTLVTVSSASTKGPSVFPLAPSSKSTSGGTAALGCLVKDYFPEPVTVSWNSGALTSGVHTFPAVLQSSGLYSLSSVVTVPSSSLGTQTYICNVNHKPSNTKVDKRVEPKSCDKTHTCPPCPAPEFEGGPSVFLFPPKPKDTLMISRTPEVTCVVVAVSHEDPEVKFNWYVDGVEVHNAKTKPREEQYNSTYRVVSVLTVLHQDWLNGKEYKCKVSNKALPAPIEKTISKAKGQPREPQVYTLPPSREEMTKNQVSLTCLVKGFYPSDIAVEWESNGQPENNYKTTPPVLDSDGSFFLYSRLTVDKSRWQQGNVFSCSVMHEALHNHYTQKSLSLSPG
# light 2: not shown
# notes: Bispecific IgG1 made by controlled Fab-arm exchange
# B5: bsG1-huCD3-FEALxCD30-T405-FEAR (bispecific antibody, human IgG1, kappa, lambda)
# heavy 1: not shown
# light 1: not shown
# heavy 2: QVQLQQIGAELVRPGASVKLSCKASGYTFNNYWINWVKQRPGQGLEWIGNIYPSDSRSNYNQKFKDKATLTVDKPSSTAYMQLSSPTSEDSAVYYCTLGSYWGQGTLVTVSAASTKGPSVFPLAPSSKSTSGGTAALGCLVKDYFPEPVTVSWNSGALTSGVHTFPAVLQSSGLYSLSSVVTVPSSSLGTQTYICNVNHKPSNTKVDKRVEPKSCDKTHTCPPCPAPEFEGGPSVFLFPPKPKDTLMISRTPEVTCVVVAVSHEDPEVKFNWYVDGVEVHNAKTKPREEQYNSTYRVVSVLTVLHQDWLNGKEYKCKVSNKALPAPIEKTISKAKGQPREPQVYTLPPSREEMTKNQVSLTCLVKGFYPSDIAVEWESNGQPENNYKTTPPVLDSDGSFFLYSRLTVDKSRWQQGNVFSCSVMHEALHNHYTQKSLSLSPG
# light 2: DVVMTQTPLTLSVTIGQPASISCKSSQSLSDSDGKTYLNWLLQRPGQSPKRLIYLVSKLDSGVPDRFTGSGSGTDFTLKISRVEAEDLGVYYCWQGAHFPRTFGGGTKLEIKRTVAAPSVFIFPPSDEQLKSGTASVVCLLNNFYPREAKVQWKVDNALQSGNSQESVTEQDSKDSTYSLSSTLTLSKADYEKHKVYACEVTHQGLSSPVTKSFNRGEC
# notes: Bispecific IgG1 made by controlled Fab-arm exchange; also called bsIgG1-huCD3-FEALxCD30-T405-FEAR
# B6: IgG1-CD30-HeFi-I-FEAR (antibody, V domains shown)
# VH: EVKLVESGGGLVQPGGSLRLSCATSGFTFSDYYMNWVRQPPGKALEWLGFIRNKANGYTTEFSASVMGRFTISRDDSQSILYLQMNTLRAEDSATYYCARDPPYGNPHYYAMDYWGQGTSVTVSS
# VL: DIVLTQSPASLAVSLGQRATISCRASKSVSASGYNYMHWYQQKAGQPPKLLIHLASNLESGVPARFSGSGSGTDFTLNIHPVEEEDASTYYCQHSGELPFTFGSGTKLEIKR
# notes: as for B1
# B7: bsG1-huCD3-FEALxCD30-T215-FEAR (bispecific antibody, human IgG1, kappa, lambda)
# heavy 1: not shown
# light 1: not shown
# heavy 2: not shown
# light 2: DIVMTQSQKFMSTSVGDRVSVTCKASQNVFTNVAWYQQKLGQSPKPLIYSASYRYSGVPDRFTGSGSGTDFTLTISDVQSEDLAEYFCQQYNSYPVTFGAGTKLELKRTVAAPSVFIFPPSDEQLKSGTASVVCLLNNFYPREAKVQWKVDNALQSGNSQESVTEQDSKDSTYSLSSTLTLSKADYEKHKVYACEVTHQGLSSPVTKSFNRGEC
# notes: Bispecific IgG1 made by controlled Fab-arm exchange; also called bsIgG1-huCD3-FEALxCD30-T215-FEAR
# B8: bsG1-huCD3-FEALxCD30-T408-FEAR (bispecific antibody, human IgG1, kappa, lambda)
# heavy 1: not shown
# light 1: not shown
# heavy 2: B5 heavy 2 with I7P, N30T, N31S, R57Y, P75S
# light 2: B5 light 2
# B9: IgG1-CD30-hAC10-FEAR (antibody, V domains shown)
# VH: QVQLVQSGAEVKKPGASVKVSCKASGYTFTDYYITWVRQAPGQGLEWMGWIYPGSGNTKYNEKFKGRVTMTRDTSISTAYMELSRLRSDDTAVYYCANYGNYWFAYWGQGTLVTVSS
# VL: DIVMTQSPDSLAVSLGERATINCKASQSVDFDGDSYMNWYQQKPGQPPKLLIYAASNLESGVPDRFSGSGSGTDFTLTISSLQAEDVAVYYCQQSNEDPWTFGQGTKVEIKR
# notes: as for B1
# Molecular target: T1, human CD30 (human, UniProt P28908 19-595)
# T1 construct: also called huCD30; TNFRSF8
# T1 sequence: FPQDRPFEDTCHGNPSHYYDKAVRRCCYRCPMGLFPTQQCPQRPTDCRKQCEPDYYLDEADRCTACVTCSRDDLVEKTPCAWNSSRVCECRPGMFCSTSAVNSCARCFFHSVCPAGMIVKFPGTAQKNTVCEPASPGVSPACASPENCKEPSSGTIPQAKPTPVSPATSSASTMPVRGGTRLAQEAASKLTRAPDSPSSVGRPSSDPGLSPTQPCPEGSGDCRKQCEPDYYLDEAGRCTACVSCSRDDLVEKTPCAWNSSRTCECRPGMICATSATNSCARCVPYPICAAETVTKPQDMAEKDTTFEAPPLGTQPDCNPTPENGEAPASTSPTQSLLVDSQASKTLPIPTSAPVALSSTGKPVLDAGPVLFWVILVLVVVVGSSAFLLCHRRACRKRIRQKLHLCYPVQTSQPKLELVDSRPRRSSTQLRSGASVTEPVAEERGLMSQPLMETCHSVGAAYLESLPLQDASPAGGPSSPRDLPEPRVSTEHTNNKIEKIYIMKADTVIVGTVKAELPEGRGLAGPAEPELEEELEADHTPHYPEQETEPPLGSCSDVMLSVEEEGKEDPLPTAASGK
# Experiment: flow cytometry, SU-DHL-1 cells
# Procedure: (§1) Binding of CD3×CD30 bispecific antibodies to two CD30-expressing human tumor cell lines SU-DHL-1 (ALCL; ATCC, cat. no. ACC 356) and HDLM-2 (HL; ATCC, cat. no. CRL-2965) was analyzed […] by flow cytometry.
# (§2) Cells (3×10⁴ cells/well) were incubated in polystyrene 96-well round-bottom plates (Greiner bio-one, cat. no. 650180) with serial dilutions of antibodies (range 0.0046 to 10 μg/mL in 3-fold dilution steps) in 50 μL staining buffer at 4° C. for 30 min. After washing twice in staining buffer, cells were incubated with 50 μL secondary antibody at 4° C. for 30 min. […] Next, cells were washed twice in staining buffer, resuspended in 100 μL staining buffer supplemented with TO-PRO-3 iodide (Thermo Fisher Scientific; cat. no. T3605; 1:8000 dilution) and analyzed on a FACSCelesta flow cytometer (BD Biosciences, USA). Live cells were gated based on FSC/SSC and absence of TOPRO-3 staining. Binding curves were analyzed by non-linear regression of log-transformed data (sigmoidal dose-response with variable slope, four parameters) using GraphPad Prism V7.02 software (GraphPad Software, San Diego, CA, USA).
row,Binder,EC50 (read off the curve) [µg/mL]
1,B1,~0.2
2,B2,~0.3
3,B3,~0.1
4,B4,~0.2

# Molecular target: T1, human CD30
# Experiment: flow cytometry, Expi293F cells transfected with human CD30
# Procedure: Cells (3×10⁴ cells/well) were incubated in polystyrene 96-well round-bottom plates (Greiner bio-one, cat. no. 650180) with serial dilutions of antibodies (ranging from 0.005 to 10 μg/mL in 3-fold dilution steps) in 100 μL staining buffer at 4° C. for 30 min. Experiments were performed in technical duplicate. After washing twice in staining buffer, cells were incubated in 50 μL secondary antibody at 4° C. for 30 min. As a secondary antibody, R-PE-conjugated goat-anti-human IgG (Jackson ImmunoResearch, UK; cat. no. 109⁻¹¹⁶-098) diluted 1:400 in staining buffer was used. Cells were washed twice in staining buffer, resuspended in 30 μL staining buffer containing 0.4% EDTA and analyzed on an iQue Screener (Intellicyt Corporation, USA). Binding curves were analyzed using non-linear regression (sigmoidal dose-response with variable slope) using GraphPad Prism V9.0.0 software (GraphPad Software, San Diego, CA, USA).
Binder,EC50 (read off the curve) [µg/mL],binding result
B2,~0.1,–
B5,~0.7,–
B6,–,binds

# Molecular target: T1, human CD30
# Experiment: cell-based or functional assay
Binder,"T-cell mediated cytotoxicity of Karpas-299 cells, IC50 average [µg/mL]","T-cell mediated cytotoxicity of Karpas-299 cells, maximum lysis average [%]"
B7,0.077,42.8
B2,0.052,43
B5,0.078,41.7
B8,0.226,41.3

# Molecular target: T1, human CD30
# Experiment: flow cytometry, HDLM-2 cells
# Procedure: as §1, §2
row,Binder,EC50 (read off the curve) [µg/mL]
1,B7,~0.6
2,B1,~0.2
3,B9,~0.1
4,B2,~0.3
5,B5,~1
6,B3,~0.2
7,B4,~0.2
